Like-named read-outs stand apart in the source and are kept apart here.

The target in assay [1] is Poly-His tagged murine FAM72A (mouse) (UniProt Q8BFZ8). The experiment in a line: BLI.
Assay [2] shares this target. The experiment in a line: BLI. This is another data set of the same source.

Sequence of UniProt Q8BFZ8 (Q8BFZ8 whole entry): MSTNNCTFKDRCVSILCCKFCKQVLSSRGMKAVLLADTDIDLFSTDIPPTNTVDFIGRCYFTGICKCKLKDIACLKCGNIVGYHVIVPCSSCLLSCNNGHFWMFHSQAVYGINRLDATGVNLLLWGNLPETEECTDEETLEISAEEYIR

What is called Kd is the concentration at which binding is half-saturated. High values mean a looser complex, low ones a tighter complex. In general, koff refers to a measure of how fast the partners let go of each other. Low readings indicate a long-lived complex, high ones a short-lived complex. In assay [1], “synthetic polypeptide containing the first 25 aa of mUNG2, C-terminal biotin” came in with a Kd of 1.9 nM and a koff of 0.037 s⁻¹. The substance also displayed a Kd in assay [2] of 188 nM.
By kon is commonly meant the second-order rate constant of association. With “murine uracil-DNA glycosylase, nuclear form (mUNG2), untagged (enzyme)”, in assay [1], the Kd came out at 600 nM, the koff amounted to 0.023 s⁻¹ and the kon turned out to be 43000 M⁻¹ s⁻¹.

For the origin of these results see article PMC10996437.
